Assay [1] concerns the target phosphotyrosine-binding domain (PTB)-containing axonal proteins.
In assay [2] the target is endogenous PTB-containing squid proteins.

Turning to GST–AICDΔNPTY (domain or fragment), in assay [1], the mean anterograde FAT rate, vesicle motility assay in isolated squid axoplasm perfused with 100 nM GST–AICDΔNPTY (GST–AICD 1.20; Buffer X/2 1.64) turned out to be 1.5 µm/s and the mean retrograde FAT rate, vesicle motility assay in isolated squid axoplasm perfused with 100 nM GST–AICDΔNPTY (GST–AICD 1.02; Buffer X/2 1.23) came out at 1.14 µm/s.

In assay [1], “GST–AICD (APP intracellular domain fused to glutathione-S-transferase) (domain or fragment)” showed a mean anterograde FAT rate, vesicle motility assay in isolated squid axoplasm perfused with 100 nM GST–AICD (Buffer X/2 1.64) of 1.2 µm/s and a mean retrograde FAT rate, vesicle motility assay in isolated squid axoplasm perfused with 100 nM GST–AICD (Buffer X/2 1.23) of 1.02 µm/s. Also, in assay [2], the mean anterograde FAT rate, vesicle motility assay in isolated squid axoplasm; 100 nM GST–AICD co-perfused with an excess of Fe65 PTB2-6xHis as competitor (GST–AICD alone 1.20; Buffer X/2 1.64) was 1.4 µm/s and the mean retrograde FAT rate, vesicle motility assay in isolated squid axoplasm; 100 nM GST–AICD co-perfused with an excess of Fe65 PTB2-6xHis as competitor (GST–AICD alone 1.02; Buffer X/2 1.23) amounted to 1.19 µm/s.

The values are drawn from PMC10572015.
